Laboratory results: the RNAGym collection of RNA variant scans (doi:10.1021/acssynbio.7b00057)

B1: Pistol ribozyme (parent)
chain: GGGUCGUUGUUCCAUAAUCGCGUGGAUAUGGCACGCAAGUUUCUACCGGGCACCGUAAAUGUCCGACUGGAGCCGUUCGGGCGGCUAUAAACAGACCUCAGGCCCGAAGCGUGGCGGCACCUGCCGCCGGUGGUAAAAAAGAUCGGAAGAGCACACGUCU

Variants of: B1
Experiment: aptazyme ON/OFF ratio, guanine; higher = stronger switching; co-transcriptional cleavage with and without guanine

Row | Variant | aptazyme ON/OFF ratio
1 | U7A U8C U10G C12G C13A | 1.09
2 | U7G U8G G9C U10C U11C C13G | 1.04
3 | U8C G9U U10C U11C C12G C13U | 1.07
4 | U7C U8C G9A U11G C12U | 1.34
5 | U7G U8A G9A U10C U11C C13G | 1.02
6 | U8G G9C C13G | 1.03
7 | U7A U8A G9U C12G C13A | 1.19
8 | U7A U8C G9A U10C C13G | 1.07
9 | U7C U8A G9C U10A U11C C12A C13G | 1.14
10 | U11C C13U | 1.24
11 | U7G U8C U10C | 2.63
12 | U7G G9U U10A U11G C12U | 1.4
13 | U7G G9A U11C C12G C13U | 1.13
14 | U7G U8A G9U U10G U11G C12G C13A | 1.15
15 | U7A U8C G9A C13U | 1.18
16 | U10C U11C C12U C13G | 1.06
17 | U7A U8C G9C U10A U11A C12A C13U | 1.05
18 | U7A U8C G9U U11C C12A | 1.28
19 | U7G U8C G9C U10G U11G C12U C13G | 1.09
20 | U7G U8G G9A U10G C12A C13G | 1.07
21 | U7C G9A U10G C12G C13A | 1.14

Row | Variant | aptazyme ON/OFF ratio
22 | U8G G9C U10G U11A C12U | 1.07
23 | U7A G9A U10G U11G C12G | 1.38
24 | U7G U8C U10A C12G | 1.29
25 | U8C G9U U11G C12G C13A | 1.19
26 | U7G U8A G9C U10C C13U | 1.04
27 | U7G U8A G9A U11C C12G C13G | 1.04
28 | U7G U8C U11C C12G C13A | 1.32
29 | U8A G9A U10C U11A C12G | 1.26
30 | U7C U8A G9C U11A C13U | 1.13
31 | U8G G9A U10A C12A C13U | 1.26
32 | U7C U8C G9C U10G U11A C12A C13G | 1.11
33 | U7G G9U U10A U11C C12A | 1.56
34 | U7C G9A U10G U11C C12A C13U | 1.15
35 | U7C U8C G9U U10A C12A C13G | 1.07
36 | U8G G9A U10G U11C C12A | 1.19
37 | U7G G9A U10C U11G C12A C13A | 1.07
38 | U7A U8C G9A U10G U11C C12G C13U | 1.18
39 | U7A U8A G9A U10C U11G C12A C13A | 1.09
40 | U8C U10G | 1.76
41 | U7A G9A U11A C12G | 1.23
42 | G9U U10C C12U C13G | 1.34

Row | Variant | aptazyme ON/OFF ratio
43 | U7C U8C G9A U10A U11A C12A C13G | 1.16
44 | U7C U8G U10G U11G C12U | 1.21
45 | U8A G9C U10A C12A | 1.27
46 | U8G U10G C12G C13A | 1.31
47 | U7A G9C U11C C12A C13A | 1.06
48 | U7G U10C C13A | 1.04
49 | U8C G9C U10C C12G C13U | 1.08
50 | U7C U10C U11A C12G C13G | 1.15
51 | U7G U8C G9C U10C U11A C12U C13A | 1.04
52 | U8C U10A U11A C12U C13G | 1.3
53 | U7A U8C G9C U10G U11C C12A C13G | 1.08
54 | U7A U8A G9C U10C U11G C12U C13A | 1.02
55 | U7G G9C U10G C12U C13U | 1.13
56 | U7G U8A G9C U10G U11C C12G C13G | 1.03
57 | U7C U8C G9A U10A U11G C12A C13G | 1.09
58 | U7G U8A C12G C13G | 1.17
59 | U7G U8A G9U U10G C12A C13A | 1.11
60 | U7G U8A U10A U11G C12U C13U | 1.71
61 | U7A U8G U10G U11G | 1.44
62 | U7C U8G G9A U10G U11A C13A | 1.09
63 | U7A U8A G9U U10G U11A C13G | 1.04

Row | Variant | aptazyme ON/OFF ratio
64 | U7A U8G G9A U10G C12U C13U | 1.24
65 | U10A U11A C12U C13A | 1.54
66 | U7C U8A G9A U10G U11G C12U C13G | 1.14
67 | U7A U8C G9A U10C U11G C13G | 1.37
68 | U8A G9U U10G U11A C12G C13U | 1.28
69 | U7C U8C G9C U10G U11A C12U | 1.15
70 | U7G G9C U10A U11A | 2.95
71 | U7G U8A G9A U11A C12U C13U | 1.06
72 | U8G G9C U11G | 1.14
73 | U7G U8G G9U U10A C13G | 1.1
74 | U7C U8A G9C U10C U11A C13G | 1.2
75 | G9C U11C C12U C13G | 1.01
76 | U7C U8A G9C C12U C13A | 1.12
77 | U7A U8C G9C U10G U11A C12A C13U | 1.06
78 | U8C U10G C13A | 1.27
79 | U8G U10C U11A C12G C13A | 1.07
80 | U7A U8A G9A U10G U11A C13G | 1.03
81 | U7G U8C G9C U10C C12G C13A | 1.14
82 | U7G U8C G9C U10C C12G C13G | 1.11
83 | U7G U8G U10G U11C C13U | 1.15
